Test results from patent US20260008852A1 (CRYSTAL BIOSCIENCE, published 2026).

T1: His-tagged human B7-H3 (human, UniProt Q5ZPR3-2 29-245, limits assumed)
T1 construct: Bought His-tagged protein coated on the ELISA plate; also called hu B7-H3; CD276
T1 sequence (looked up): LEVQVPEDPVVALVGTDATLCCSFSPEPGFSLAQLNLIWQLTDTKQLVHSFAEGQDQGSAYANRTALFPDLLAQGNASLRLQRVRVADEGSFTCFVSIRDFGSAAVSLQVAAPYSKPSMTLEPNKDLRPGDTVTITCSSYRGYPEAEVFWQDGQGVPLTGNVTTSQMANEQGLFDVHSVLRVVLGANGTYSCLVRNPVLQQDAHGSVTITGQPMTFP

T2: His-tagged mouse B7-H3 (mouse, UniProt Q8VE98 29-244, limits assumed)
T2 construct: Bought His-tagged protein coated on the ELISA plate; also called mu B7-H3; murine B7-H3
T2 sequence (looked up): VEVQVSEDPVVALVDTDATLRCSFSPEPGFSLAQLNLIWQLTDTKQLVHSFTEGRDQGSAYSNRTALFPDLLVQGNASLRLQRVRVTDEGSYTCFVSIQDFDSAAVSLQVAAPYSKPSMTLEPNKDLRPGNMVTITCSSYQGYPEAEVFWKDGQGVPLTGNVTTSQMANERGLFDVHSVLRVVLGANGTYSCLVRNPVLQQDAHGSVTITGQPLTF

T3: His-tagged cynomolgus monkey B7-H3 (cynomolgus monkey)
T3 chain: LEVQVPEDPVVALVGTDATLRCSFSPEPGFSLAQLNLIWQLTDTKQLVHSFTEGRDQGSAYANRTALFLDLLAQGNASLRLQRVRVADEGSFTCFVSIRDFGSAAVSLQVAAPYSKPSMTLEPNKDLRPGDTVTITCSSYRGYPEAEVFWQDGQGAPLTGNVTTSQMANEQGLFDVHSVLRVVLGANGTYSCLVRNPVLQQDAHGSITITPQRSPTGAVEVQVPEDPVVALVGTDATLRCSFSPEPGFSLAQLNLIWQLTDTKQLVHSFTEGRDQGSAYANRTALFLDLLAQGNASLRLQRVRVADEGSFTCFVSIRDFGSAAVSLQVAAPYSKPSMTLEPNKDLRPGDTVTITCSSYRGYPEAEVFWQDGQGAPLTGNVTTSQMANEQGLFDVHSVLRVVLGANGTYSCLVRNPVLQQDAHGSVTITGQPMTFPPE

T4: B7-H3 on B7-H3-expressing CHO cells (Genescript) (UniProt Q5ZPR3 29-534, limits assumed)
T4 construct: whole, on cells; also called CHO-K1/B7-H3; MFI B7-H3
T4 sequence (looked up): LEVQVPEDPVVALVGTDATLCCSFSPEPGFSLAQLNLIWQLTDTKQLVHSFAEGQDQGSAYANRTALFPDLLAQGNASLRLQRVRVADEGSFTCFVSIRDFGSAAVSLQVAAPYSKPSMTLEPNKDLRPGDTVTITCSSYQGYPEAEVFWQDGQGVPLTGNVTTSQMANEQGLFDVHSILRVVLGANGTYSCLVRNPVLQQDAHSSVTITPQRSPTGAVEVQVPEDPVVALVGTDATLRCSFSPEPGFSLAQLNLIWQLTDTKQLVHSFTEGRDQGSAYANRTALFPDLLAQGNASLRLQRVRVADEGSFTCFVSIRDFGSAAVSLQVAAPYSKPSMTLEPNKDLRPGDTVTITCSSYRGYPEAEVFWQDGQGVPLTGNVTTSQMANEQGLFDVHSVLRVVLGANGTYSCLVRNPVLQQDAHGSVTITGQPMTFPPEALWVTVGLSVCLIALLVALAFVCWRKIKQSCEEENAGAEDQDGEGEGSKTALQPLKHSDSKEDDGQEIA


Assays:
His-tagged human B7-H3 [1] = target: T1, His-tagged human B7-H3; assay: ELISA OD450 on hu B7-H3 over OD450 on mu B7-H3
Method: (§1) The variable regions of heavy and light chains were cloned and assembled into a single chain Fv-Fc (ScFv-Fc) mammalian expression vector. Sanger sequencing was performed by GeneWiz and sequences were evaluated using DNASTAR Lasergene 15. Unique scFv-Fes were transiently expressed in Expi293 cells (Life Technologies, #A14527) grown in Expi293 Expression Medium (Life Technologies, #A1435101) after transfection using the ExpiFectamine transfection reagent and supplements (Life Technologies, #A14524). Cells were incubated for 3-5 days with shaking at 37° C. in a 5% CO2 humidified incubator.

His-tagged human B7-H3 [2] = target: T1, His-tagged human B7-H3; assay: ELISA, coated His-tagged antigen, scFv-Fc 1 ug/ml
Method: as §1

His-tagged mouse B7-H3 = target: T2, His-tagged mouse B7-H3; assay: ELISA, coated His-tagged antigen, scFv-Fc 1 ug/ml
Method: as §1

[3] = target: T3, His-tagged cynomolgus monkey B7-H3; assay: ELISA, coated His-tagged antigen, scFv-Fc 1 ug/ml
Method: as §1

[4] = target: T4, B7-H3 on B7-H3-expressing CHO cells …; assay: flow cytometry, B7-H3-expressing CHO cells, 10 ug/ml
Method: Binding of anti-B7-H3 antibodies to cell lines was assessed by flow cytometry. Briefly, approximately 1.5 e5 B7-H3-expressing CHO cells (Genescript) or parent CHO cells (ATCC) were resuspended in FACS buffer (PBS/1% BSA/0.01% NaN3) containing 10 μg/ml of anti-B7-H3 antibodies and incubated for 60 min on ice. […] Cells were then washed twice, resuspended in FACS buffer, and read on an Attune Flow Cytometer (Life Technologies). Data are expressed as Mean Fluorescent Intensities (MFI).

Binder	hu:mu ratio (His-tagged human B7-H3 [1])	ELISA OD450 @ 1 ug/ml (His-tagged human B7-H3 [2])	ELISA OD450 @ 1 ug/ml (His-tagged mouse B7-H3)	ELISA OD450 @ 1 ug/ml [3]	MFI @ 10 ug/ml [4]
40633p1.1.A6 (scFv, V domains shown, Tested as scFv-Fc (Expi293 supernatant)) VH: EVQLLESGGGLVQPGGSLRLSCAASGFSFSNYDMSWVRQAPGKGLEWVAGIRSGSRTYYADSVKGRFTISRDNSKNTLYLQMNSLRAEDTATYYCGRYFNMDVWGQGTTVTVSS VL: QSVLTQPPSASGTPGQRVTISCSGSTFNIGTNLVHWYQQLPGTAPKLLIYLTDRRPSGVPDRFSGSKSGTSASLAISGLQSEDEANYYCATWDDSLNSFLFGGGTKLTVL	1.49	1.88 OD450	1.26 OD450	1.62 OD450	67800 MFI
40633p1.2.A10 (scFv, V domains shown, Tested as scFv-Fc (Expi293 supernatant)) VH: EVQLLESGGGLVQPGGSLRLSCAASGFTVSYYGMSWVRQAPGKGLEWVSVIKQDGSEEYYADSVKGRFTISRDNSKNTLYLQMNSLRAEDTAVYYCARHWNDYSNGMNVWGQGTTVTVSS VL: QSVLTQPPSASGTPGQRVTISCSGSTSNVGDRYVYWYQQLPGTAPKLLIYLDDQRPSGVPDRFSGSKSGTSASLAISGLQSEDEADYYCASWDASLNGWVFGGGTKLTVL	1.06	2.14 OD450	2.02 OD450	2.14 OD450	63500 MFI
40633p1.1.G11 (scFv, V domains shown, Tested as scFv-Fc (Expi293 supernatant)) VH: EVQLLESGGGLVQPGGSLRLSCAASGFTVSYYGMSWVRQAPGKGLEWVSVIKQDGSEEYYADSVKGRFTISRDNSKNTLYLQMNSPRAEDTAVYYCARHWNDYSNGMNVWGQGTTVTVSS VL: QSVLTQPPSASGTPGQRVTISCSGSTSNVGDRYVYWYQQLPGTAPKLLIYLDDQRPSGVPDRFSGSKSGTSASLAISGLQSEDEADYYCASWDASLNGWVFGGGTKLTVL	1.12	2.05 OD450	1.83 OD450	1.72 OD450	75900 MFI
40633p1.2.A8 (scFv, V domains shown, Tested as scFv-Fc (Expi293 supernatant)) VH: EVQLLESGGGLLQPGGSLRLSCAASGFSFSSYGMHWVRQAPGKGLEWVAAINSDGSRIYYADSVKGRFTISRDNSKNTLYLQMNSLRAEDTAVYYCTKYYYHYAMDVWGQGTTVTVSS VL: QSVLTQPPSASGTPGQRVTISCSGSRSDIGATTVNWYQQLPGTAPKLLIYQSHLRPSGVPDRFSGSKSGTSASLAISGLQSEDEADYYCASWDASLNTWVFGGGTKLTVL	1.11	2.17 OD450	1.95 OD450	2.16 OD450	62200 MFI
40633p1.1.B12 (scFv, V domains shown, Tested as scFv-Fc (Expi293 supernatant)) VH: EVQLLESGGGLLQPGGSLRLSCAASGFSFSSYGMHWVRQAPGKGLEWVAAINSDGSRIYYADSVKGRFTISRDNSKNTLYLQMNSLRAEDTAVYYCTKYYYHYAMDVWGQGTTVTVSS VL: QSVLTQPPSASGTPGQRVTISCSGSRSDIGATTVNWYQQLPGTAPKLLTYQSHLRPSGVPDRFSGSKSGTSASLAISGLQSEDEADYYCASWDASLNTWVFGGGTKLTVL	1.04	1.83 OD450	1.75 OD450	1.72 OD450	65400 MFI

The remaining lines, values ahead:

hu:mu ratio (His-tagged human B7-H3 [1])	ELISA OD450 @ 1 ug/ml (His-tagged human B7-H3 [2])	ELISA OD450 @ 1 ug/ml (His-tagged mouse B7-H3)	ELISA OD450 @ 1 ug/ml [3]	MFI @ 10 ug/ml [4]	Binder
1.5	2.09 OD450	1.4 OD450	2.14 OD450	81300 MFI	40633p1.2.E11 (scFv, V domains shown, Tested as scFv-Fc (Expi293 supernatant)) VH: EVQLLESGGGLVQPGGSLRLSCAASGFSFSNYDMSWVRQAPGKGLEWVAGIRSGSRTYYADSVKGRFTISRDNSKNTLYLQMNSLRAEDTATYYCGRYFNMDVWGQGTTVTVSS VL: QSVLTQPPSASGTPGQRVTISCSGSTFNIGTNLVHWYQQLPGTAPKLLIYLTDRRPPGVPDRFSGSKSGTSASLAISGLQSEDEANYYCATWDDSLNSFLFGGGTKLTVL
0.961	1.9 OD450	1.98 OD450	1.95 OD450	64700 MFI	40633p1.2.E1 (scFv, V domains shown, Tested as scFv-Fc (Expi293 supernatant)) VH: EVQLLESGRGLVQPGGSLRLSCAASGFTVSYYGMSWVRQAPGKGLEWVSVIKQDGSEEYYADSVKGRFTISRDNSKNTLYLQMNSLRAEDTAVYYCARHWNDYSNGMNVWGQGTTVTVSS VL: QSVLTQPPSASGTPGQRVTISCSGSTSNVGDRYVYWYQQLPGTAPKLLIYLDDQRPSGVPDRFSGSKSGTSASLAISGLQSEDEADYYCASWDASLNGWVFGGGTKLTVL
2.01	1.78 OD450	0.886 OD450	2.01 OD450	53100 MFI	40633p1.2.C3 (scFv, V domains shown, Tested as scFv-Fc (Expi293 supernatant)) VH: EVQLLESGGGLVQPGGSLRLSCAASGFTVSYYGMSWVRQAPGKGLEWVSAIKQDGSEKYYADSVKGRFTISRDNSKNTLYLQMNSLRAEDTAVYYCARHWNDYSNAMNVWEQGTTVTVSS VL: QSVLTQPPSASGTPGQRVTISCSGSNSNVGGNYVSWYQQLPGTAPKLLIYRNSQRPSGVPDRFSGSKSGTSASLAISGLQSEDEAVYYCASWDASLNGWVFGGGTKLTVL
1.03	1.96 OD450	1.91 OD450	2.04 OD450	68800 MFI	40633p1.2.F3 (scFv, V domains shown, Tested as scFv-Fc (Expi293 supernatant)) VH: EVQLLESGGGLVQPGGSLRLSCAASGFTVSYYGMSWVRQAPGKGLEWVSVIKQDGSEEYYADSVKGRFTISRDNSKNTLYLQMNSLRAEDTAVYYCARHWNDYSNGMNVWGQGTTVTVSS VL: not shown
0.991	1.95 OD450	1.97 OD450	1.7 OD450	76400 MFI	40633p1.1.A7 (scFv, V domains shown, Tested as scFv-Fc (Expi293 supernatant)) VH: EVQLLESGGGLVQPGGSLRLSCAASGFTVSYYGMSWVRQAPGKGLEWVSAIKQDGSEKYYADSVKGRFTISRDNSKNTLYLQMNSLRAEDTAVYYCARHWNDYSNAMNVWGQGTTVTVSS VL: QSVLTQPPSASGTPGQRVTISCSGSTSNIGRESVYWYQQLPGTAPKLLIYTIDQRPSGVPDRFSGSKSGTSASLAISGLQSEDEAVYYCASWDASLNGWVFGGGTKLTVL
